From article PMC6677831, “X-ray Crystallographic Structure and Oligomerization of Gloeobacter Rhodopsin” (Scientific Reports, 2019)
Where a chain is given by its changes, count along the chain named. Numbers in names are those of the source. Each block holds one molecule with its values, some of them ahead of it.

Key:
[1] = target: T1, Gloeobacter rhodopsin (GR) (Gloeobacter violaceus, UniProt Q7NP59); experiment: X-ray crystal structure, […] A; type: binding; conditions: covalent, protonated Schiff base at Lys257; dark state; bicelle crystals, pH 3.4, 100 K
T1 construct: gene gll0198; wild type, C-terminal 6xHis tag, expressed in E. coli C43(DE3) with added retinal; 33 kDa; monomer at pH 3.0, pentamer at pH 8.0 in DDM

[2] = target: Mastigocladopsis repens halorhodopsin (Mastigocladopsis repens); experiment: not stated; unpublished observation of the authors
[3] = target: the molecule itself; experiment: SEC; Superdex 200 10/300 GL; 20 mM Tris-HCl pH 8.0, 300 mM NaCl, 0.04% DDM
[4] = target: the molecule itself; experiment: DEER spectroscopy; Q-band, 80 K, 20% deuterated glycerol, GR-67R1 in detergent micelles at pH 8.0; distances between spin labels of protomers

Molecule: CC1=C(/C=C/C(C)=C/C=C/C(C)=C/C=O)C(C)(C)CCC1 [all-trans-retinal]
- X-ray crystal structure, 2.0 A [1]: the all-trans-retinal chromophore is covalently bound to the opsin protein moiety via a Schiff base

- stoichiometry N [2]: 3
Molecule: Mastigocladopsis repens halorhodopsin (natural protein)

B1: Gloeobacter rhodopsin (natural protein, Gloeobacter violaceus PCC 7421)
chain: MLMTVFSSAPELALLGSTFAQVDPSNLSVSDSLTYGQFNLVYNAFSFAIAAMFASALFFFSAQALVGQRYRLALLVSAIVVSIAGYHYFRIFNSWDAAYVLENGVYSLTSEKFNDAYRYVDWLLTVPLLLVETVAVLTLPAKEARPLLIKLTVASVLMIATGYPGEISDDITTRIIWGTVSTIPFAYILYVLWVELSRSLVRQPAAVQTLVRNMRWLLLLSWGVYPIAYLLPMLGVSGTSAAVGVQVGYTIADVLAKPVFGLLVFAIALVKTKADQESSEPHAAIGAAANKSGGSLIS
modifications: all-trans-retinal covalently bound to Lys257 via a protonated Schiff base
notes: Gloeobacter rhodopsin (GR), light-driven proton pump of Gloeobacter violaceus PCC 7421; 33 kDa; Membrane protein in detergent micelles (0.04% DDM) in the oligomerisation experiments; also called GR; wild-type GR; source: E. coli C43(DE3), purified (TALON Co2+ column, Superdex 200) in OG or DDM
- binding result [3]: binds

B2: spin-labeled GR-67R1 (natural protein, Gloeobacter violaceus PCC 7421)
chain: B1 chain with G67C
modifications: R1 nitroxide side chain at Cys67; all-trans-retinal bound to Lys257 via a Schiff base
notes: Gloeobacter rhodopsin (GR) of Gloeobacter violaceus PCC 7421 with G67C, spin-labeled at 67; also called spin labeled G67C mutant of GR
- stoichiometry N [4]: 5
